Paper PMC5626764

Target: SHG-labeled wildtype NiV G ectodomain (Nipah virus) (UniProt Q9IH62)
Assay: second harmonic generation (SHG)

ephrinB2-229 (10881-HCCH, SinoBiological Inc.) (domain or fragment)
ΔSHG: -15.9%
